Reference: patent CN114958811A
Where two headings read alike, the source gives them in different places.

Columns and labels:
[1] = biological target: RBD-Fc (义翘神州 40592-V05H) (SARS-CoV-2) (UniProt P0DTC2)
[2] = biological target: RBD-Fc (义翘神州 40592-V05H) (SARS-CoV-2) (UniProt P0DTC2); remark: listed apart in the source

hACE2-Fc融合蛋白 (fusion of the human ACE2 extracellular domain with the Fc fragment of human IgG1) (Fc fusion)
IC50 [1]: 7.6 nM | IC50 [2]: 5.02 nM
